This passage reports stoichiometry N results from PMC3254782.

Common to all, as to experiment: immunoprecipitation and Western blot
A general note: In western blotting, separated proteins are transferred to a membrane and probed.

The target of assay [1] is amyloid-β (Aβ) in brain tissue of Tg2576 mice (human).
Assay [2] has as its target amyloid-β (Aβ) secreted by 7PA2 cells.
Assay [3] concerns the target amyloid-β (Aβ) secreted by mature Tg2576 primary cortical neurons (human).
The target is the same in assay [4]. This is another data set of the same source.

Read-outs that look alike come from different tables or passages of the source.

For orientation: stoichiometry N means the number of molecules, sites or subunits per partner or assembly. In assay [1], “amyloid-β (Aβ) in brain tissue of Tg2576 mice (peptide)” displayed a stoichiometry N of 2.
In turn, “amyloid-β (Aβ) secreted by 7PA2 cells (peptide)” registered a stoichiometry N in assay [2] of 2.
“amyloid-β (Aβ) secreted by mature Tg2576 primary cortical neurons (peptide)”: the stoichiometry N was determined as 3 in assay [3] and 2 in assay [4].
